Measured values from patent US20230060388A1 (SHANGHAI HENLIUS BIOTECH, published 2023).
Numbering of substitutions follows the chain as printed.

T1: recombinant human TIGIT extracellular domain (ECD) (human, UniProt Q495A1 22-138)
T1 construct: also called h-TIGIT ECD; recombinant human TIGIT ECD
T1 sequence: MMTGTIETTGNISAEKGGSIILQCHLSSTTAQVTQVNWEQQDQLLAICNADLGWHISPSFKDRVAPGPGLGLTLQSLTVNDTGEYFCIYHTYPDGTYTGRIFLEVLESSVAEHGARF

B1: 3G7 VHH (VHH)
VHH: QVQLVESGGGLVQAGDSLRLSCEASGRTLSTYTMGWFRRAPGKEREFVGLAWPSPSTYVVDSVKGRFTISRDNAKNTIYLQMNSLKPEDTAIYYCAADYKSLTQSWLNAALDYWGQGTQVTVSS
notes: VHH in E. coli supernatant
B2: 13H11 VHH (VHH)
VHH: QVQLVESGGGLVQAGGSLRLSCAASGLTFSMYAMGWFRQGPGKERESVAAISSDGRFTYYAASVKGRFTISKDNAKSAAFLQMNSLKPEDTAVYYCAARDSGSGYYSRAQWYDYWGQGTQVTVSS
notes: VHH in E. coli supernatant
B3: 1G1 VHH (VHH)
VHH: B2 VHH with G16D, A23V, L27P, T28S, M31S, A33P, Q120L
notes: VHH in E. coli supernatant
B4: 2B7 VHH (VHH)
VHH: B2 VHH with S21A, L27R, M31S, A33P
notes: VHH in E. coli supernatant
B5: 2B10 VHH (VHH)
VHH: QVKLEESGGGLVQTGDSLRLSCAASSRIFRRYAMGWFRQAPGKEREFVAAITWSGASTTYTDSVKGRFTISRDSAENTTYLQMTSLRPEDTAVYYCAADPWGSVIVGTAEYEYWGQGTLVTVSS
notes: VHH in E. coli supernatant
B6: 1C12 VHH (VHH)
VHH: QVQLVESGGGLVQTGDSLRLSCAASSRIFSRYGMGWFRQAPGKEREFVAAISWNGASTTYTDSVKGRFTISRDSAENTTYLQINSLRPEDTAVYYCAADPWGAVKLGTAEYEYWGQGTQVTVSS
notes: VHH in E. coli supernatant
B7: 3G6 VHH (VHH)
VHH: QVQLVESGGGLVQAGGSLSLSCAASGSIFGISVMGWYRQAPGEQRDLVATLTRAGLTTYGDSVKGRFSISRDSAKNTVYLQMNNLKPEDTAVYYCHANIMESAASTFGRYWGQGTQVTVSS
notes: VHH in E. coli supernatant
B8: 3F10 VHH (VHH)
VHH: QVQLVESGGGLVQAGGSLRLSCASSEHTFSNFPMGWFRQAPGKERNVVAAIDSSGRLTYYADSVKGRFTISKDNAKSTVYLQMNSLKSEDTARYYCAARTGGVGYYSRSSFYNYWGQGTLVTVSS
notes: VHH in E. coli supernatant
B9: 15A5 VHH (VHH)
VHH: QVQLVESGGGLVQAGGSLRLSCAASERTFSSFAMGWFRQAPGKEREVVAAIDPSGRYIYYKDSVKGRFTMSRDNAKSTVYLQMNSLKPDDTARYYCAARIRGEGYYTRSSFYHYWGQGTQVTVSS
notes: VHH in E. coli supernatant

target: T1, recombinant human TIGIT extracellular …; assay: blocking ELISA, competitor PVR
Protocol: The effects of VHH antibody clones on blocking Poliovirus Receptor (PVR, a.k.a. CD155) binding to TIGIT were also determined using blocking ELISA assay.

Inhibition of PVR binding to h-TIGIT, > 90%:
B1
B2
B3
B4
B5
B6
B7
B8
B9
